Legend:
Assay in all cases: BLI
[1] = molecular target: vWF-A1 of C. minimus (C. minimus (Chironectes))
[2] = molecular target: vWF-A1 of D. albiventus (D. albiventus (Didelphis))
[3] = molecular target: vWF-A1 of D. aurita (made by site-directed mutagenesis of the D. marsupialis construct) (D. aurita (Didelphis))
[4] = molecular target: vWF-A1 of D. marsupialis (D. marsupialis (Didelphis))
[5] = molecular target: vWF-A1 of Didelphis virginiana (Didelphis virginiana)
[6] = molecular target: vWF-A1 of Lutreolina crassicaudata (Lutreolina crassicaudata)
[7] = molecular target: vWF-A1 of Monodelphis domestica (Monodelphis domestica)
[8] = molecular target: vWF-A1 of Monodelphis emiliae (Monodelphis emiliae)
[9] = molecular target: vWF-A1 of P. quica (P. quica (Philander))

Row | Substance | fold reduction of binding affinity against human vWF [1] | fold reduction of binding affinity against human vWF [2] | fold reduction of binding affinity against human vWF [3] | fold reduction of binding affinity against human vWF [4] | fold reduction of binding affinity against human vWF [5] | fold reduction of binding affinity against human vWF [6] | fold reduction of binding affinity against human vWF [7] | fold reduction of binding affinity against human vWF [8] | fold reduction of binding affinity against human vWF [9]
1 | botrocetin (isoform B) (natural protein) | > 8 fold | > 8 fold | 8 fold | > 8 fold | > 8 fold | > 8 fold | > 8 fold | > 8 fold | > 8 fold
2 | botrocetin (isoform A) (natural protein) |  |  |  | > 8 fold | > 8 fold |  |  |  | 

From publication PMC9255381
